For data set [1], the target named is T1, human leukocyte elastase (hLE) (Homo sapiens, UniProt P08246).
T1 construct: Neutrophils (1.4 billion) were isolated from whole blood obtained from a single healthy laboratory donor; from tissue; host or cells: neutrophils from whole blood of a single healthy donor
T1 sequence (P08246 30-247 limits assumed): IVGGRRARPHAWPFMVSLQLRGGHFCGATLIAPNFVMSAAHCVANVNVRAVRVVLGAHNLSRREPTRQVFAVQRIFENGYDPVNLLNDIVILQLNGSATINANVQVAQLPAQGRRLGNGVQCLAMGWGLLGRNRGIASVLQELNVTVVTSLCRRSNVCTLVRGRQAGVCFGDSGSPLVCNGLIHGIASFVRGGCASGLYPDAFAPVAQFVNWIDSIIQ
The data set is described as follows: In vitro inhibition of hLE (cleavage of MeOSuc-AAPV-NA). The format is biochemical.

The target of data set [2] is T2, human leukocyte cathepsin G (hCG) (Homo sapiens, UniProt P08311).
T2 construct: Neutrophils (1.4 billion) were isolated from whole blood obtained from a single healthy laboratory donor; from tissue; host or cells: neutrophils from whole blood of a single healthy donor
T2 sequence (P08311 21-243 limits assumed): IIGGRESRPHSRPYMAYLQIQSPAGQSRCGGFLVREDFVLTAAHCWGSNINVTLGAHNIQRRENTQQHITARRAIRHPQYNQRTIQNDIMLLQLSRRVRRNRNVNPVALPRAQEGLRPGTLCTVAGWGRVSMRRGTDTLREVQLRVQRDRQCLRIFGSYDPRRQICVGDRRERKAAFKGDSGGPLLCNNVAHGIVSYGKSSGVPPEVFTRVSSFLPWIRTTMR
The data set is described as follows: In vitro inhibition of hCG (cleavage of Suc-AAPF-NA). Type of data set: biochemical. The gist of the method:
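Purified hCG (1.2 μg, about 40 picomol) incubated with 600 μM Suc-AAPF-NA and CRP-derived peptides at 1–100 μM in 100 mM Hepes pH 7.4, 0.05% Brij-35, 5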

Data set [3] addresses T3, hLE (Homo sapiens, UniProt P08246).
T3 construct: Neutrophils (1.4 billion) were isolated from whole blood obtained from a single healthy laboratory donor; from tissue; host or cells: neutrophils from whole blood of a single healthy donor
T3 sequence (P08246 30-247 limits assumed): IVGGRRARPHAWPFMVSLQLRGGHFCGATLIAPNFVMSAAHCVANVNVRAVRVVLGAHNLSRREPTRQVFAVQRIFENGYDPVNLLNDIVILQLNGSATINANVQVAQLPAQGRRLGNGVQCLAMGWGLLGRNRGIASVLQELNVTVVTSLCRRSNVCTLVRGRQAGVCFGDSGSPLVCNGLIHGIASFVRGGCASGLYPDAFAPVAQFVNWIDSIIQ
Description: Resistance to proteolysis by hLE, degradation profile by RP-HPLC. The format is in vitro ADME. Particulars: PBS, 37° C., up to 12 hours. On the procedure: (§1) (vii) Degradation profiles of peptides by RP-HPLC: Several active peptide inhibitors were dissolved in calcium- and magnesium-free phosphate-buffered saline (PBS), 125 μg /250 μL, mixed with […] of hLE or hCG in 250 μL PBS and incubated at 37° C. Periodically (up to 12 hrs), 100 μL samples were removed from the reaction vessel. The samples were diluted with 150 μL of 0.1% TFA, frozen with liquid nitrogen, and stored at −20° C. prior to HPLC analysis.
(§2) The stability of the peptide bonds in peptide 6 were evaluated by incubating the peptide with hLE and hCG and monitoring degradation profiles of the peptide by reverse-phase HPLC. Briefly, peptide 6 was dissolved in calcium- and magnesium-free phosphate-buffered saline (PBS), 50 μg/250 μL, mixed with 3 μg of hLE or hCG in 250 μL PBS and incubated at 37° C. Periodically, after 1,3,8, and 12 hrs incubation, 100 μL samples were removed from the reaction vessel. The samples were diluted with 150 μL of 0.1% TFA, frozen with liquid nitrogen, and stored at −20° C. prior to HPLC analysis.

The target in the next data set is T4, hCG (Homo sapiens, UniProt P08311).
T4 construct: Neutrophils (1.4 billion) were isolated from whole blood obtained from a single healthy laboratory donor; from tissue; host or cells: neutrophils from whole blood of a single healthy donor
T4 sequence (P08311 21-243 limits assumed): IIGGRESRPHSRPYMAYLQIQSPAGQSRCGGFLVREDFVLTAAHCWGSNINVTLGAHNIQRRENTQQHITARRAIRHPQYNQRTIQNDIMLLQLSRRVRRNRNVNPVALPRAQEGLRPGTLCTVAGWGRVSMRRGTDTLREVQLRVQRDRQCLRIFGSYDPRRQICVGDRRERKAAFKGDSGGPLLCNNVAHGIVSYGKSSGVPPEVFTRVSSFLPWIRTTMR
Description: Resistance to proteolysis by hCG, degradation profile by RP-HPLC. The format is in vitro ADME. As to conditions: PBS, 37° C., up to 12 hours. On the procedure:
as §1, §2

For data set [4], the target named is T5, human leukocyte cathepsin G (human, UniProt P08311 21-244).
T5 construct: mature; Active enzyme purified from human neutrophils; also called hCG; human Cathepsin G
T5 sequence (looked up): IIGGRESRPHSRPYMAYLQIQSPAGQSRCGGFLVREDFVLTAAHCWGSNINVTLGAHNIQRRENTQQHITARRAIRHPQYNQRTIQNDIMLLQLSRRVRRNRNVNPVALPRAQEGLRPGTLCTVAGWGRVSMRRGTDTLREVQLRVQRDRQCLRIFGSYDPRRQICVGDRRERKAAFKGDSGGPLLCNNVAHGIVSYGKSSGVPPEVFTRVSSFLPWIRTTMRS
Description: hCG enzyme inhibition kinetics, cleavage of Suc-AAPF-NA. How it is done: (§3) (v) Inhibition experiments with hLE: Peptides were dissolved in 100 mM Hepes buffer pH 7.4 containing 0.1% Brij-35 with 10%. DMSO to yield 300 µM solutions, which were used to make further dilutions with the same buffer, and 80 µL aliquots were added in duplicates to 96-well plates. The substrate, 600 µM MeOSuc-AAPV-NA in the same buffer with 5% DMSO, was added to each well in addition to the blank wells, and the plate was placed in the plate reader equilibrated to 37 C (Dynateck MR-6000). Lyophilized aliquots of hLE were dissolved in 1600 µL of 100 mM Hepes buffer without DMSO, and 80 µL of the enzyme solution was added to the peptides and substrate to initiate the reaction. The kinetics program read the plate at 405 nm every 2 min for 20 min (with a 3 sec shaking period between readings), and plotted the results as well as the average of each duplicate. The final volume was 240 µL containing: 5% DMSO, 1–100 µM of peptide, 200 µM substrate, and 0.75 µg (~25 picomol) enzyme.
(§4) vi) Inhibition experiments with hCG: Similar conditions to hLE inhibition experiments were used except the substrate: 80 µL of 1.80 mM Suc-AAPF-NA. The enzyme was dissolved in 800 µL buffer, and the reaction was monitored every 6 min for 1 hour. The final volume was 240 µL containing: 5% DMSO, 1–100 µM peptide, 600 µM substrate, and 1.2 µg enzyme (about 40 picomol).

Data set [5] has as its target T6, human leukocyte elastase (human, UniProt P08246 30-267).
T6 construct: mature; Active enzyme purified from human neutrophils; also called hLE
T6 sequence (looked up): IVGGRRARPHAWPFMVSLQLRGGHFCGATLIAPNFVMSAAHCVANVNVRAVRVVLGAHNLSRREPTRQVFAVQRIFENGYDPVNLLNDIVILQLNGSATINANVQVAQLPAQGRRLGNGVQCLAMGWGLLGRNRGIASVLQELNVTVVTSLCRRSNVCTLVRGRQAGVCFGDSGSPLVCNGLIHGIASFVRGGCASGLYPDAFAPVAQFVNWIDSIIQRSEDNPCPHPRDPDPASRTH
The data set is described as follows: hLE enzyme inhibition kinetics, cleavage of MeOSuc-AAPV-NA. How it is done:
as §3
(§5) The hLE inhibitory capability of CRP-derived peptides was evaluated by inhibiting the enzymatic cleavage of MeOSuc-AAPV-NA as described in Materials and Methods (section v).

The target of data set [6] is T5, human leukocyte cathepsin G. The data set is described as follows: hCG enzyme inhibition kinetics, cleavage of Suc-AAPF-NA. How it is done:
as §3, §4
This is another data set of the same source.

Data set [7] concerns the target T6, human leukocyte elastase. Description: hLE enzyme inhibition kinetics, cleavage of MeOSuc-AAPV-NA. How it is done: as §3, §5
This is another data set of the same source.

Data set [8] deals with specific receptors on human neutrophils. Particulars: in vitro; read-out: Kd, binding to receptors on human neutrophils; cited from earlier work.
In data set [9] the target is specific receptors on monocytes. As to conditions: in vitro; read-out: Kd, binding to receptors on monocytes; cited from earlier work.
Data set [10] addresses T7, hLE (Homo sapiens, UniProt P08246).
T7 sequence (P08246 30-267): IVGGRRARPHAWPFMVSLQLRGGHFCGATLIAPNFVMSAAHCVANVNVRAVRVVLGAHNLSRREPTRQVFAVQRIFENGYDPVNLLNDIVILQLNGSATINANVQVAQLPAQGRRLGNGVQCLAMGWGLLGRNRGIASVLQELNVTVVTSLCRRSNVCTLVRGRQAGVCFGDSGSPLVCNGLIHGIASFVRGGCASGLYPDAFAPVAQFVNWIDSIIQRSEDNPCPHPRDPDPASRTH
Particulars: CRP as a whole protein; cited from earlier work.

[11] abbreviates: peptide concentrations above 50 μM.

Where two headings read alike, the source gives them in different places. Where a SMILES comes first, the peptide text is derived from it.

A word on the Ki: it is the equilibrium dissociation constant of an inhibitor or competing ligand from its target. Low readings indicate tighter binding, high ones weaker binding. Usually Kd stands for the free concentration of one partner at which half of the binding sites on the other are occupied at equilibrium, for simple one-to-one binding.

On to `CC[C@H](C)[C@H](NC(=O)[C@H](CC(=O)O)NC(=O)[C@H](CCCCN)NC(=O)[C@H](CO)NC(=O)[C@H](Cc1c[nH]c2ccccc12)NC(=O)[C@H](Cc1ccccc1)NC(=O)[C@@H](NC(=O)[C@H](CC(C)C)NC(=O)[C@@H](NC(=O)[C@@H](N)CCC(=O)O)[C@@H](C)CC)[C@@H](C)CC)C(=O)NCC(=O)N[C@@H](Cc1ccc(O)cc1)C(=O)N[C@@H](CO)C(=O)N[C@@H](Cc1ccccc1)C(=O)N[C@H](C(=O)O)[C@@H](C)O` [Peptide 6, Glu-Ile-Leu-Ile-Phe-Trp-Ser-Lys-Asp-Ile-Gly-Tyr-Ser-Phe-Thr] (H-EILIFWSKDIGYSFT-OH; N-terminus and C-terminus assumed), for which, in data set [1], the “hLE inhibitory activity (in words)” value is on record as “submicromolar concentrations”. Besides, the inhibitory constant (Ki) in data set [1] (hLE Ki [μM], Table 1, substrate MeOSuc-AAPV-NA 200 μM, pH 7.4, 37 C) turned out to be 0.18 ± 0.03 µM; in data set [2] (hCG Ki [μM], Table 1, substrate Suc-AAPF-NA 600 μM, pH 7.4) it was 0.25 ± 0.05 µM. Moreover, the “hLE inhibition at concentrations above 50 μM” value in data set [1] (setting [11]) is recorded as “Total inhibition”. The “hCG inhibitory activity (in words)” value in data set [2] was “submicromolar concentrations”. For the same molecule, the “hCG inhibition at concentrations above 50 μM” value in [2] (setting [11]) is “total inhibition”. Also, the “cleavage products after incubation with hLE” value on hLE [3] was “no cleavage products were observed”. Further, the “cleavage products after incubation with hCG” value on hCG is on record as “no cleavage products were observed”.

B1: peptide 5 (CRP57-71) (peptide)
peptide: KRQDNEILIFWSKDI
notes: Synthetic 15-mer
For the molecule B1, the figures for the Ki (in data set [4]; in the data set with human leukocyte elastase [5]) were 180 µM and 85 µM, respectively.

B2: peptide 11 (CRP63-76) (peptide)
peptide: ILIFWSKDIGYSFT
notes: Synthetic
Consider B2, for which the inhibitory constant (Ki) in [6] was found to be 15 µM; with human leukocyte elastase [7], 4.5 µM. Moreover, the “fold decrease in hLE inhibition against peptide 6” value in the data set with human leukocyte elastase [5] is approximately 20 fold.

B3: peptide 13 (CRP62-73) (peptide)
peptide: EILIFWSKDIGY
notes: Synthetic; also called pep13
Take B3: the Ki is 4 µM in data set [6] and 1.1 µM in the data set with human leukocyte elastase [7].

B4: peptide 18 (peptide)
peptide: DILIFWSKDIGYSFT
notes: Analog of peptide 6 (CRP62-76) with Glu62 replaced by Asp; also called pep18
B4: the inhibition constant Ki in [6] came to 2.6 µM; with human leukocyte elastase [7], 2.2 µM. Also, in the data set with human leukocyte elastase [5], the “fold lower inhibitory activity against peptide 6” value is 10 fold.

B5: peptide 19 (peptide)
peptide: EILIFWPKDIGYSFT
notes: Analog of peptide 6 (CRP62-76) with Ser68 replaced by Pro
B5 returned a Ki in data set [6] of 30 µM.

B6: peptide 14 (CRP62-71) (peptide)
peptide: EILIFWSKDI
notes: Synthetic; also called pep14
Turning to B6, the Ki stood at 6 µM in data set [6] and 6.7 µM with human leukocyte elastase [7].

B7: CRP: plasma protein classified as a major acute phase reactant; five identical sub-units of 206 amino acids (pentraxin) (protein, listed as Homo sapiens)
chain: ETDMSRKAFVFPKESDTSYVSLKAPLTKPLKAFTVCLHFYTELSSTRGYSIFSYATKRQDNEILIFWSKDIGYSFTVGGSEILFEVPEVTVAPVHICTSWESASGIVEFWVDGKPRVRKSLKKGYTVGAEASIILGQEQDSFGGNFEGSQSLVGDIGNVNMWDFVLSPDEINTIYLGGPFSPNVLNWRALKYEVQGEVFTKPQLWP
modifications: pentamer
B7: the Kd in data set [8] was approximately 0.05 µM; in data set [9], approximately 0.1 µM. Also, the “inhibitory effect of whole CRP on hLE” value with hLE [10] was “no inhibitory effect”.

B8: peptide 10 (CRP82-96) (peptide)
peptide: ILFEVPEVTVAPVHI
notes: Synthetic 15-mer
For the molecule B8, the inhibitory constant (Ki) in [4] turned out to be 150 µM; with human leukocyte elastase [5], 55 µM.

The values are drawn from patent US6528618B1, “Anti-inflammatory peptides derived from C-reactive protein” (Yeda Research and Development Co. Ltd., priority 1997, dated 2003).
